According to patent publication US7595158B2, “Bcl2L12 polypeptide activators and inhibitors” (Dana-Farber Cancer Institute, Inc., priority 2003, dated 2009):

Experiments:
[1] = test system: Ink4a/Arf deficient embryonic fibroblasts; test: Colony formation of Ink4a/Arf deficient embryonic fibroblasts; assay type: cell-based; details: about 300 cells per 6 well plate; vector only about 13
Experimental: In addition, Ink4a/Arf deficient embryonic fibroblasts were transfected with vector only or a vector encoding a Bcl2L12 polypeptide or Bcl2 polypeptide. Once the cells were transfected, the number of colonies formed in cultures (about 300 cells per 6 well plate) was determined. Expression of Bcl2L12 polypeptide promoted growth of Ink4a/Arf deficient embryonic fibroblasts. […] In a similar experiment, Ink4a/Arf deficient embryonic fibroblasts were co-transfected with a vector encoding H-RasV12 and either a vector only, vector encoding Bcl2L12 polypeptide, or a vector encoding Bcl2 polypeptide. Once the cells were transfected, the number of foci formed per transfection was determined. Expression of Bcl2L12 polypeptide or Bcl2 polypeptide in combination with H-RasV12 expression promoted growth of Ink4a/Arf deficient embryonic fibroblasts (about 1.5 to 2 fold more foci per transfection for cells expressing Bcl2L12 polypeptide or Bcl2 polypeptide compared to control pBabe cells).

[2] = test system: Ink4a-/-/Arf-/- astrocytes; test: Annexin V staining of STS-treated Ink4a/Arf deficient astrocytes (FACS); assay type: cell-based, mouse
Experimental: The following experiments were performed to determine whether the Bcl2L12 polypeptide influenced cell survival or apoptosis. Ink4a^−/−/Arf^−/− astrocytes retro-virally infected with vector alone (pBabe) or vector containing Bcl2 nucleic acid, Bcl2L12-V5 nucleic acid, R-RAS nucleic acid, or IRF3 nucleic acid were […] After this one day incubation, the cells were stained with annexin V (Roche). Annexin V-positive cells were determined by FACScan analysis (mean±S.D.; three independent experiments with each being performed in triplicate).
After STS treatment, the cells were analyzed for apoptosis by assessing annexin V binding and DNA fragmentation using a FACS based analysis.

[3] = test system: astrocytes; test: Plasma membrane integrity (SYTOX Green) and LEHDase activity in STS-treated astrocytes; assay type: cell-based; details: range of STS concentrations
Experimental: To assess and quantify plasma membrane integrity, vector or Bcl2L12-V5 transfected astrocytes were treated with or without STS (500 nM) for 24 hours and stained with a combination of Hoechst (a DNA intercalating dye that enters living as well as apoptotic or necrotic cells) and SYTOX Green (a green fluorescent dye that only enters cells with a disintegrated plasma membrane). FIG. 4B is a picture of STS treated and untreated cells transfected with either a control vector (pBabe) of a vector encoding a Bcl2L12-V5 polypeptide.
In addition, the green cells were counted over a range of different STS concentration (FIG. 4C; bars), and caspase-9 activity was determined by quantifying LEHDase activity in the corresponding cell lysates (FIG. 4C; histogram). […] SYTOX green positive cells were also quantified using a FACS based analysis assessing the increase in green fluorescence.

[4] = test system: Ink4a/Arf deficient astrocytic cell cultures; test: Nuclear swelling (Nicoletti method) in Ink4a/Arf deficient astrocytes; assay type: cell-based, mouse; details: STS 500 nM 24 hours; vector only about 42 percent
Experimental: To quantify nuclear swelling in Ink4a/Arf deficient astrocytic cell cultures, cells transfected with vector only or a vector encoding a Bcl2L12-V5 polypeptide were treated with or without STS (500 nM) for 24 hours, lysed, and stained with Propidium Iodide (Nicoletti method). Nuclei with increased forward scatter (i.e., increased size) were defined as swollen, and the number of those nuclei relatively to the total number of nuclei was expressed as the percent swelling.

[5] = test system: p53 mediated transcription; test: p53 luciferase reporter (PG13) in Ink4a/Arf deficient astrocytes; assay type: cell-based; details: normalized to βGal, vs vector control
Source text: Activation of the p53 transcription factor in response to a variety of cellular stresses, including DNA damage and oncogene activation, initiates a program of gene expression that blocks the proliferative expansion of damaged cells. To asses the effect of Bcl2L12 polypeptides on p53 mediated transcription, Ink4a/Arf deficient astrocytes ectopically expressing a Bcl2L12-V5 polypeptide were transfected with increasing amounts of nucleic acid encoding a p53 polypeptide and a luciferase construct bearing a dimerized p53 binding site in its promoter (PG13).

[6] = test system: Ink4a/Arf deficient astrocytes; test: Colony formation of Ink4a/Arf deficient astrocytes after gamma-irradiation; assay type: cell-based, mouse; details: γ-irradiated 5 Gy, ten days, 1000 cells/10 cm dish; vector only about 17
Experimental: The ability of Bcl2L12 polypeptide to promote colony formation was assessed. Briefly, 1000 cells were seeded in a 10 cm dish and γ-irradiated (5 Gy). After culturing the irradiated cells for ten days, the cells were stained with crystal violet, and the number of colonies was counted. Bcl2L12-V5 polypeptide expression promoted colony formation in Ink4a/Arf deficient astrocytes upon γ-irradiation (about 27 colonies for cells expressing Bcl2L12-V5 polypeptides compared to about 17 colonies for control vector only cells; 1000 cells/10 cm dish).

[7] = test system: Ink4a-/-/Arf-/- astrocytes; test: Growth of transduced Ink4a-/-/Arf-/- astrocytes under normal and low-serum conditions; assay type: cell-based, mouse
Source text: The Bcl2L12-V5, R-RAS, and IRF3 nucleic acid sequences were cloned into expression vectors. Controls included expression vectors containing EGFR or Bcl2 nucleic acid sequences. The encoded polypeptides were expressed in primary astrocytes and tested for cell growth, transformation, and apoptosis activities. Primary astrocytes deficient for Ink4a/Arf (e.g., Ink4a^−/−/Arf^−/− astrocytes) were used given the prominence of this tumor suppressor lesion in advanced human gliomas. The following was performed to assess growth characteristics under normal growth conditions. Mouse Ink4a^−/−/Arf^−/− astrocytes were retro-virally transduced with pBabe vector alone; Bcl2L12-V5 nucleic acid; R-RAS nucleic acid; IRF3 nucleic acid; EGFR* nucleic acid; or Bcl2 nucleic acid. After retro-viral infection, transduced mouse Ink4a^−/−/Arf^−/− astrocytes were subjected to puromycin (2 μg/mL) selection for four days and plated at a density of 1×10^5 cells/10 cm dish using 10% FBS-DMEM medium. All transduced Ink4a^−/−/Arf^−/− astrocytes were counted each day for five days to determine cell numbers (mean±S.D.; three independent experiments with each being performed in triplicate).
The following was performed to assess growth characteristics under low-serum growth conditions. Retro-virally transduced mouse Ink4a^−/−/Arf^−/− astrocytes (1×10^6 cells/10 cm dish) were allowed to attach onto plates in 10% FBS-DMEM medium for five hours. After five hours, the medium was changed to 0.1% FBS-DMEM, and the cells were allowed to grow for three days. After three days in 0.1% FBS, the cells were counted to determine cell numbers (mean±S.D.; three independent experiments with each being performed in triplicate). The number of Ink4a^−/−/Arf^−/− astrocytes infected with pBabe-vector was set to 1.0.

B1: Bcl2L12-V5: Bcl2L12 polypeptide having the V5 epitope tag, ectopically expressed from pBabe-Bcl2L12-V5 vector; human amino acid sequence 1-334 (protein)
chain: MGRPAGLFPPLCPFLGFRPEACWERHMQIERAPSVPPFLRWAGYRPGPVRRRGKVELIKFVRVQWRRPQVEWRRRRWGPGPGASMAGSEELGLREDTLRVLAAFLRRGEAAGSPVPTPPRSPAQEEPTDFLSRLRRCLPCSLGRGAAPSESPRPCSLPIRPCYGLEPGPATPDFYALVAQRLEQLVQEQLKSPPSPELQGPPSTEKEAILRRLVALLEEEAEVINQKLASDPALRSKLVRLSSDSFARLVELFCSRDDSSRPSRACPGPPPPSPEPLARLALAMELSRRVAGLGGTLAGLSVEHVHSFTPWIQAHGGWEGILAVSPVDLNLPLD
modifications: left off: small tags and cut ends
With B1 the number of colonies [1] was “about 26 colonies”, the annexin-V positive cells ([2]; 100 nM staurosporine one day, control cultures about 17-22 percent) was 6-7% and the “annexin V+/PI- cells” value ([2]; 500 nM STS, pBabe about 20 percent) was “about 6%”. For the same molecule, the “SYTOX Green positivity” value [3] was “significantly increased”, the “caspase-9 activity (LEHDase)” value [3] was “dramatically reduced” and the “swelling (nuclei)” value [4] was “about 67%”. For the same molecule, the “transcriptional activity of p53 (reporter activity)” value [5] was “marked decrease of transcriptional activity”, the number of colonies [6] was “about 27 colonies” and the “resistance to growth inhibition by low serum culture” value ([7]; 0.1% FBS, three days, vs pBabe) was “significantly resistant to growth inhibition”. For the same molecule, the “growth / proliferation under normal growth conditions” value ([7]; over-expression, 10% FBS, vs vector only) was “significant increase in growth”.
